This note sets out measurements from publication PMC11783328.

pKd: −log10 of the molar value. Some results are limits rather than exact numbers.

The target in one assay is 3BNC60 mature. Description: SPR. The following applies: antibody dilution series, colour key 0.98-1000 nM; KD1 fitted by bivalent modeling.
For assay [1], the target named is 12A12 germline (gl-12A12). In words: SPR. Particulars: antibody dilution series, colour key 0.98-1000 nM; KD1 fitted by bivalent modeling; parent: ND.
Assay [2] has as its target PGV19 germline (gl-PGV19). In words: SPR. The following applies: antibody dilution series, colour key 0.98-1000 nM; KD1 fitted by bivalent modeling.
Assay [3] deals with gl-3BNC60 IgG (inferred germline precursor of 3BNC60). Description: SPR. The following applies: antibody dilution series, colour key 0.98-1000 nM; KD1 fitted by bivalent modeling; parent: ND.
Assay [4] addresses VRC01 germline (gl-VRC01). Description: SPR. Particulars: antibody dilution series, colour key 0.98-1000 nM; KD1 fitted by bivalent modeling.
Assay [5] concerns the target BG505 SOSIP.v4.1 GT1.1 trimer (BG505 SOSIP germline trimer 1.1) (HIV-1 (isolate BG505)) (UniProt Q2N0S6). In words: SPR; Biacore 3000; His-tagged GT1 and GT1.1 trimers captured in parallel flow cells, IgG injected from 1 μM in two- or four-fold dilutions; association 300 s, dissociation 600 s, 50 uL/min; bivalent model.

Sequence of gl-3BNC60 IgG (inferred germline precursor of 3BNC60) (antibody) (VH): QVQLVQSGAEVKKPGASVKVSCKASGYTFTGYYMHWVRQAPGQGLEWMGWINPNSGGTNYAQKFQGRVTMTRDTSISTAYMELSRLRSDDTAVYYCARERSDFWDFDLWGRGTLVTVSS
Sequence of gl-3BNC60 IgG (inferred germline precursor of 3BNC60) (antibody) (VL): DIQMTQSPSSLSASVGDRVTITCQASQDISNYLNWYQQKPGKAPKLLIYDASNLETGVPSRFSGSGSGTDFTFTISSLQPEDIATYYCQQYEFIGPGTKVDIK

As for “BG505 SOSIP.v4.1-GT1 trimer (from UniProt Q2N0S6) E275K”, the pKd in the assay with 3BNC60 mature is more than 10.00; in assay [1] it was 6.70; in assay [2], 7.62; in assay [3], 6.11; in assay [4] it was 6.44.
Regarding “gl-3BNC60 IgG (inferred germline precursor of 3BNC60) (antibody)”, the KD1 (bivalent model) in assay [5] is 780 nM.
